The target in assay [1] is V5His6-tagged polypeptide of human GIPF (GIPFt) (human). Kind of assay: cell-based or functional assay.
Assay [2] deals with human wild type, full-length GIPF polypeptide (GIPFwt) (human) (UniProt Q2MKA7). Kind of assay: cell-based or functional assay.
Chain of UniProt Q2MKA7 (Q2MKA7 21-263 limits assumed): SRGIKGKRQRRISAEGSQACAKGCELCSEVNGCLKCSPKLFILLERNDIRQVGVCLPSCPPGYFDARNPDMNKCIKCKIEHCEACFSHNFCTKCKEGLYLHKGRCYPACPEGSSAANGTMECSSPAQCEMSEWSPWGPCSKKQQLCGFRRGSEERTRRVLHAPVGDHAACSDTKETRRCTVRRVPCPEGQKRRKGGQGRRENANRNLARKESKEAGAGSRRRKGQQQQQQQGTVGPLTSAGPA

Chain of V5His6-tagged polypeptide of human GIPF (GIPFt) (human) (chain, as listed by the source limits assumed): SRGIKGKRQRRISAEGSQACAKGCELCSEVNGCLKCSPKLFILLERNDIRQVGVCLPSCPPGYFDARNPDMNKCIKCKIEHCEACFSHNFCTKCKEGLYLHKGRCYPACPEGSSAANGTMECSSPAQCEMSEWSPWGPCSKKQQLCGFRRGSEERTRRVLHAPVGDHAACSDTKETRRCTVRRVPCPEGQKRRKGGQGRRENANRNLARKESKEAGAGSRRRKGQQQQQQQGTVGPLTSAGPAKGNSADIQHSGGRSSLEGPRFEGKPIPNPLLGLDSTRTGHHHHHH

For “furin protease (from UniProt P09958 108-794) (enzyme)”, the N-terminal sequence analysis of protein from HEK293 cells; ratio of mature to dominant mature forms (ratio mature:dominant mature) in assay [1] and in assay [2] was 0.5 each time.

The values are drawn from patent US20050256044A1.
